The target of experiment [1] is T1, CEP1 (X at 6 and 12 = citrulline; biotin-conjugated for SPR and Luminex).
T1 construct: CKIHAXEIFDSXGNPTVECK; derived from alpha-enolase; also called CEPI; citrullinated alpha-enolase peptide
T1 peptide: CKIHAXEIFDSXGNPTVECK
As to the kind of experiment: SPR (Biacore 2000), biotinylated CEP1 on a streptavidin chip, Fab as analyte up to about 3400 nM; plot of RU against concentration; REP1 channel as reference per the legend. As to the method: (§1) SPR sensorgrams of chimeric E4NG Fab fragment (A), E4 (B), F3(C), D10 (D), and B2 (E) binding to immobilized CEP1. Response Units (R.U.) reflect the value of subtracting […]. A series of analyte concentrations were tested. The binding of E4NG (F) and F3 (G) to citrullinated Histone2A peptide were analyzed in a similar way as shown in (A)-(E).
(§2) Surface plasmon resonance analysis. Binding of peptides to the given antibody was analyzed by SPR using a Biacore 2000 biosensor at 25° C. Briefly, the biotin-conjugated peptide was coupled to an […] by streptavidin binding. Then the Fab fragment or full-length antibody was diluted in PBS-P running buffer (20 mM phosphate buffer, 2.7 mM KCl, 137 mM NaCl and 0.05% Surfactant P20) and injected at in a series of concentrations. Data processing and analysis were performed using Biacore 2000 evaluation software.
In general terms: Surface plasmon resonance follows binding to a sensor surface in real time, without labels.

In experiment [2] the target is T1, CEP1. In words: SPR, CEP1 immobilised. The procedure:
as §2

For experiment [3], the target named is T1, CEP1. In words: SPR (Biacore 2000), biotinylated CEP1 on a streptavidin chip, full antibody as analyte up to 200 nM; plot of RU against concentration; REP1 channel as reference per the legend; the legend says only E4, paragraph 117 ties the CEP1 Kd to E4NG. As to the method:
as §1, §2

B1: chimeric E4NG Fab fragment (murine IgG2b constant region) (Fab)
heavy: QVQLEESGPGLVRPSETLSLSCTVSGFPMSESYFWGWIRQSPGKGLEWLGSVIHTGTTYYRPSLESRLTIAMDPSKNQVSLSLTSVTVADSAMYYCVRIRGGSSNWLDPWGPGIVVTASS
light: QSVWTQPPSVSAAPGQKVTISCSGDDSILRSAFVSWYQQVPGSAPKLVIFDDRQRPSGIPARFSGSNSGTTATLDIAGLQRGDEADYYCAAWNGRLSAFVFGSGTKLTVLGQPKSSPSVTLFPPSSEELETNKATLVCTITDFYPGVVTVDWKVDGTPVTQGMETTQPSKQSNNKYMASSYLTLTARAWERHSSYSCQVTHEGHTVEKSLSRADCS
notes: domain: constant region; Fab made with the ImmunoPure Fab Preparation Kit (papain); also called E4Fab; mE4Fab; not shown: part of the mouse IgG2b constant region (UniProtKB P01867) left in the Fab after cleavage
With B1, the affinity with CEP1 [1], expressed as Kd, was 2300 nM.

B2: chimeric E4NG (antibody, mouse IgG2b)
heavy: QVQLEESGPGLVRPSETLSLSCTVSGFPMSESYFWGWIRQSPGKGLEWLGSVIHTGTTYYRPSLESRLTIAMDPSKNQVSLSLTSVTVADSAMYYCVRIRGGSSNWLDPWGPGIVVTASS
light: QSVWTQPPSVSAAPGQKVTISCSGDDSILRSAFVSWYQQVPGSAPKLVIFDDRQRPSGIPARFSGSNSGTTATLDIAGLQRGDEADYYCAAWNGRLSAFVFGSGTKLTVLGQPKSSPSVTLFPPSSEELETNKATLVCTITDFYPGVVTVDWKVDGTPVTQGMETTQPSKQSNNKYMASSYLTLTARAWERHSSYSCQVTHEGHTVEKSLSRADCS
notes: domain: constant region; Human E4 variable regions on mouse IgG2b/lambda-1 constant regions; also called chimeric non-glycosylated (NG) E4; mE4; not shown: mouse IgG2b heavy chain constant region, UniProtKB P01867
Take B2: the Kd with CEP1 [2] stood at 0.25 nM; in the experiment with CEP1 [3], 250 nM.

As a reminder, the Kd is the concentration at which binding is half-saturated. A low value points to higher affinity.

These data come from patent publication US20200291133A1 (VACARA, published 2020).
